In PMC3988258:

Target: GFP-NAIP2 (mouse) (UniProt Q9QUK4)
Test: co-IP

UniProt Q9QUK4, sequence (Q9QUK4 whole entry): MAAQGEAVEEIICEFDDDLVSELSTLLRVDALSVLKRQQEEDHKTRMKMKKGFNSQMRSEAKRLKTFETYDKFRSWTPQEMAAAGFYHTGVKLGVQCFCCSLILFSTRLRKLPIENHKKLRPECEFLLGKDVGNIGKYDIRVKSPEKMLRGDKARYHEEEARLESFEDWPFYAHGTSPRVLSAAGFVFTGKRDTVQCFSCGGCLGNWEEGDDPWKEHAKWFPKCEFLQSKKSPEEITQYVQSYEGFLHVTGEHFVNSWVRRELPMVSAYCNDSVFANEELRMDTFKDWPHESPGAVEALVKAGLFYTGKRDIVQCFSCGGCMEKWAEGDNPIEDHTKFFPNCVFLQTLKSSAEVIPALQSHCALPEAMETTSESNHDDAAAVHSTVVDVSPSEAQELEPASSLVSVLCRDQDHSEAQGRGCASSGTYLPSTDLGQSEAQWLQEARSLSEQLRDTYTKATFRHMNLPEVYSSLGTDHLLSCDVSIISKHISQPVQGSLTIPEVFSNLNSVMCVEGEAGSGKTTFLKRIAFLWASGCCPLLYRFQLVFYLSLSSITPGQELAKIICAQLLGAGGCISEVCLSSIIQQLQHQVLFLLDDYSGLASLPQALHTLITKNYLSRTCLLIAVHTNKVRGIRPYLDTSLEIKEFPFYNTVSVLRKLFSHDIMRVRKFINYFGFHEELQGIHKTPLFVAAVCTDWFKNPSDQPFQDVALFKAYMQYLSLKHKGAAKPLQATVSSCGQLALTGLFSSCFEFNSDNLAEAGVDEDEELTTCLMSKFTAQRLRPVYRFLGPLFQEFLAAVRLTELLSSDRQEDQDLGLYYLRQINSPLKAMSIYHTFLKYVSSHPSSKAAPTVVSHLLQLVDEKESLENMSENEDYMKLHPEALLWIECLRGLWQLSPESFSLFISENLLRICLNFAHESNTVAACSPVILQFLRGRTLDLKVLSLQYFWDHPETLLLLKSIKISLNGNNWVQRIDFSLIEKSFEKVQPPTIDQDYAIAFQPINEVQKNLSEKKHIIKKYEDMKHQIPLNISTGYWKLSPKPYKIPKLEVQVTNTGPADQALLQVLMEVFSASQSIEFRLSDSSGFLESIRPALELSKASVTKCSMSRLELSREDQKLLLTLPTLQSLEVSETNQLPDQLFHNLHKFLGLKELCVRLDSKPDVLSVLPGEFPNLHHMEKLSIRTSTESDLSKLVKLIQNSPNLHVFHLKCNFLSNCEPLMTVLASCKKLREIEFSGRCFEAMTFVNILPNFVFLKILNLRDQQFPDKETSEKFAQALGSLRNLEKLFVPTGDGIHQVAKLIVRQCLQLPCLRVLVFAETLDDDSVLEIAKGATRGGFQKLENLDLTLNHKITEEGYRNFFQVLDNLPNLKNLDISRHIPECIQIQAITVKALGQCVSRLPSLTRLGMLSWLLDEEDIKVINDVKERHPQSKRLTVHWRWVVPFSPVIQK

## GFP-PrgJ (from UniProt P41785 1-101) (ligand)
  stoichiometry N (ligand per NAIP): 1
